Target: GST-PCAF (human, UniProt Q92831 1-832)
Assay: pull-down

Chain of GST-PCAF (Q92831 whole entry): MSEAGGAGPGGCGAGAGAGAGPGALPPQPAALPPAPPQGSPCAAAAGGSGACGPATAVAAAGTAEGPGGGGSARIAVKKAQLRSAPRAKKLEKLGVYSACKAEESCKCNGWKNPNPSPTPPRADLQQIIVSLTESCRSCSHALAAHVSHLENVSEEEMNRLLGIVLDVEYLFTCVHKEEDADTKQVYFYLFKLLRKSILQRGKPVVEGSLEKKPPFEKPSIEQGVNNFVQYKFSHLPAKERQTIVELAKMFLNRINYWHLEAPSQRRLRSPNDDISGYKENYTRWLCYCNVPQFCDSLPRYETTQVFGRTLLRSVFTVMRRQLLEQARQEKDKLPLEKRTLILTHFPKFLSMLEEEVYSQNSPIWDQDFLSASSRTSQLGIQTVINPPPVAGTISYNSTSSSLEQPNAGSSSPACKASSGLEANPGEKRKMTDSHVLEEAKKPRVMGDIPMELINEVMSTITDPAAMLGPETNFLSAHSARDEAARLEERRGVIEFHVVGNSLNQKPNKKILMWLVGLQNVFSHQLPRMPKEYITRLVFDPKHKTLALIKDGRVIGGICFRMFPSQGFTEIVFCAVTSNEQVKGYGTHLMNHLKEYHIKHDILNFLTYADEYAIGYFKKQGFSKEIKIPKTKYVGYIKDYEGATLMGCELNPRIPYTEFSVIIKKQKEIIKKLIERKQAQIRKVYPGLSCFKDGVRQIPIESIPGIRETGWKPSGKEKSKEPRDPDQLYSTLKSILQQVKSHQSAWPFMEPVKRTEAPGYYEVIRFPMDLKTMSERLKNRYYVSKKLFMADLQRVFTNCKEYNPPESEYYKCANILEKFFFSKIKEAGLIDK

binding result: binds
B1: His-HMGA2 (natural protein)
chain: MSARGEGAGQPSTSAQGQPAAPAPQKRGRGRPRKQQQEPTGEPSPKRPRGRPKGSKNKSPSKAAQKKAEATGEKRPRGRPRKWPQQVVQKKPAQEETEETSSQESAEED

— PMC7229824 (Nucleic Acids Research, 2020)
